The values below come from PMC9036092 (The Journal of Cell Biology, 2022).

B1: Transportin-1 (TNPO1) with the acidic loop (residues 337–367) replaced by a GGSGGSG linker (natural protein)
chain: MEYEWKPDEQGLQQILQLLKESQSPDTTIQRTVQQKLEQLNQYPDFNNYLIFVLTKLKSEDEPTRSLSGLILKNNVKAHFQNFPNGVTDFIKSECLNNIGDSSPLIRATVGILITTIASKGELQNWPDLLPKLCSLLDSEDYNTCEGAFGALQKICEDSAEILDSDVLDRPLNIMIPKFLQFFKHSSPKIRSHAVACVNQFIISRTQALMLHIDSFIENLFALAGDEEPEVRKNVCRALVMLLEVRMDRLLPHMHNIVEYMLQRTQDQDENVALEACEFWLTLAEQPICKDVLVRHLPKLIPVLVNGMKYSDIDIILLKGDVEEDETIPDSEQDIRGGSGGSGDTISDWNLRKCSAAALDVLANVYRDELLPHILPLLKELLFHHEWVVKESGILVLGAIAEGCMQGMIPYLPELIPHLIQCLSDKKALVRSITCWTLSRYAHWVVSQPPDTYLKPLMTELLKRILDSNKRVQEAACSAFATLEEEACTELVPYLAYILDTLVFAFSKYQHKNLLILYDAIGTLADSVGHHLNKPEYIQMLMPPLIQKWNMLKDEDKDLFPLLECLSSVATALQSGFLPYCEPVYQRCVNLVQKTLAQAMLNNAQPDQYEAPDKDFMIVALDLLSGLAEGLGGNIEQLVARSNILTLMYQCMQDKMPEVRQSSFALLGDLTKACFQHVKPCIADFMPILGTNLNPEFISVCNNATWAIGEISIQMGIEMQPYIPMVLHQLVEIINRPNTPKTLLENTAITIGRLGYVCPQEVAPMLQQFIRPWCTSLRNIRDNEEKDSAFRGICTMISVNPSGVIQDFIFFCDAVASWINPKDDLRDMFCKILHGFKNQVGDENWRRFSDQFPLPLKERLAAFYGV
B2: FITC-labeled peptide corresponding to residues 699–729 of BAP1 (peptide)
peptide: {FITC-Ahx}-RRRQGVSIGRLHKQRKPDRRKRSRPYKAKRQ

Holding throughout (experiment): fluorescence polarisation
(In general: Fluorescence polarisation rises when a labelled molecule tumbles more slowly, as on binding a larger partner.)

The target of assay [1] is FITC-labeled peptide corresponding to residues 699–729 of BAP1 (human).
For assay [2], the target named is B2.
Assay [3] has as its target Importin α5 (KPNA1), residues 66–512, without the IBB domain (UniProt P52294 66-512).

Where no end group is shown, it is not given here. The star is where a group is joined. FITC = O=C1OC2(c3ccc(O)cc3Oc3cc(O)ccc32)c2ccc(NC(=S)*)cc21; Ahx = NCCCCCC(=O)O

Importin α5 (KPNA1), residues 66–512, without the IBB domain, sequence (P52294 66-512): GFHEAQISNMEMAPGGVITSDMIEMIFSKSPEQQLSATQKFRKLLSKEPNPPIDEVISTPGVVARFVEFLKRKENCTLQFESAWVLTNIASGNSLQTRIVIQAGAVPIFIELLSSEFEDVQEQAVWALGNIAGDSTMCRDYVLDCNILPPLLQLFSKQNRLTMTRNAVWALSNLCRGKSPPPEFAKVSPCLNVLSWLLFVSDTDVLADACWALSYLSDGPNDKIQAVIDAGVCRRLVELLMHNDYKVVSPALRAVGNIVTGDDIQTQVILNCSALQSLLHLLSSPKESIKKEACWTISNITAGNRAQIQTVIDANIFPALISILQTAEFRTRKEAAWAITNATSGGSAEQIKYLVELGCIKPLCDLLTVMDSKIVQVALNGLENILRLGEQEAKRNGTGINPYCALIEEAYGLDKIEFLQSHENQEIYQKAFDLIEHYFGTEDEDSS

In general, Kd refers to the free concentration of one partner at which half of the binding sites on the other are occupied at equilibrium, for simple one-to-one binding. A low value points to tighter binding. Regarding “Importin α1 (KPNA2), residues 60–529, without the IBB domain (from UniProt P52292 60-529) (domain or fragment)”, in assay [1], the Kd is more than 7200 nM.

In assay [2], B1 showed a Kd of 19.6 nM.

B2 showed a Kd in assay [3] of 670 nM.
